Changes are numbered by the printed parent chain.
B1: XGv265 (antibody, V domains shown)
VH: QITLKESGPTLVKPTQTLTLTCNFSGFSLNTYGVGVGWIRQPPGKALEWLALIYWDGDERYGPFFKNKVTIAKDTSKNQVVLTMTNMDPVDTATYYCARHLIPTIFDYWGQGTLVTVSS
VL: QSALTQPASVSGSPGQSITISCTGTSSDVGGSNYVSWYQHHPDRAPKLLIYEVTNRPSGVSNRFSGSKSANTASLTISGLQAEDEADYYCSSYTTTSTHILFGGGTKLTV
B2: XGv347 (antibody, V domains shown)
VH: QMQLVQSGPEVKKPGTSVKVSCKASGFTFTDVSSLQWVRQARGQRLEWIGWTVVGTGNTNYAPRFQERVTITTDKSTSTAYMELSSLRSEDTAVYYCAAPFCSETSCSDGFDLWGQGTKVTVSS
VL: EIVLTQSPGTLSLSPGDRATLSCRASQSVRISYLAWYQQKPGQAPRLLISGSSSRATGIPDRFSASGSGTDFALTISRLEPEDFAVYYCQQYDNSPWTFGQGTKVEVK
B3: XGv289 (antibody, V domains shown)
VH: QVQLVQSGAEVKKPGASLKVSCRASGYTFTSHFIHWVRQAPGQGLEWMGIINPSGGASYAQNFRDRVTMTTDPSTSTVYMELGSLRSEDTAVYYCARAEGSSWLGWFDPWGQGTLVTVSS
VL: QSVLTQPPSASGTPGQRVTIPCSGSSSNIGNNYVYWYQQLPGTAPKLLVYGNNQRPSGVPDRFSVSKSGTSASLAISGLRSEDEADYYCAAWDDGLSGSGWVFGGGTKLTVL
B4: XGv282 (antibody, V domains shown)
VH: QVQLVQSGAEVKKPGSSVKVSCKASGDTFSSYTFSWVRQAPGQGLEWMGRSIPIVGKAIYAQEFQGRVTISADRSTTTVYMELSSLRSDDTAVYYCARDQSGFDFFYYDHWGQGTLVAVSS
VL: QSVLTQPPSASGTPGQRVTISCSGSGSNIGSNTINWYQQLPGTAPKVLIYRNNERPSGVPDRFSGSKSGTSASLTISGLQSEDEAYYHCAAWDDSLNGPVFGGGTKLTVL
B5: XGv296 (antibody, V domains shown)
VH: QVQLVQSGAEVKKPGASVKISCKASGYTFTDHYVHWVRQAPGQGLEWMAIVNPSDGSTSYAQKFQGRVTMTSDTSTTTIYMELSSLRSGDTAVYYCARAEGSSWLGWFDPWGQGTQVTVSS
VL: QSVLTQPPSASGTPGQRVTISCSGSSSNIGGHYVYWYQQFPGTAPKLLIYRSNQRPSGVPDRFSGSKSGTSASLAISGLRSEDEADYFCAAWDDGLRGSGWVFGGGTTLTV
B6: XGv297 (antibody, V domains shown)
VH: QVQLVQSGAEVKKPGASVKVSCRTSGYTFTAYYIHWVRQVPGQGLEWMGIINPSGGGASYAQTFQGRVSLTRDTSTRTVYMDLSSLISEDTAVYYCARAEGTHWLGWFDPWGQGTLVTVSS
VL: B3 VL with P21S, G30A, N31S, Y33S, V49I, G51R, V65G, K67T, G95N
B7: XGv302 (antibody, V domains shown)
VH: EVQLVESGGGLIQPGGSLRLSCAASGITVSSNYMNWVRQAPGKGLEWVSVIYAGGTTFYADSVKGRFTISRDSSKNTLSLQMNSLRVEDTAVYYCVRNLVVYGMDVWGQGTTVTVSS
VL: DIQLTQSPSSLSASVGDRVTITCRASQGISSDLAWYQQKPGKAPKLLIYGASTLQSGVPSRFSGSGSGAHFTLTINSLQPEDFAIYYCQQLNSEFLTFGGGTKVEIK
B8: XGv303 (antibody, V domains shown)
VH: B7 VH with Q13R, N35T, A53S, S73N, S79Y, V87A, V96A
VL: B7 VL with S56G, A69T, H70D, N76S, S77R, F83C
B9: XGv304 (antibody, V domains shown)
VH: B7 VH with A23E, G26E, N35R, V50L, T56S, S73N, S79Y, V96A, N98D, V100M
VL: B7 VL with D32Y, K45N, A69T, H70D, N76S, I85T, Q90H, E94D, F95P
B10: XGv338 (antibody, V domains shown)
VH: EVQLVESGGGLVQPGGSLRLSCAASGFPFITYWMSWVRQTPGKGLEWVANIKEDGSEKNYVDSVKGRFTVSRDNAENSLYLRMNSLRIEDTAVYYCAREIRRTIPTSGMDVWGQGTTVTVSS
VL: SYELTQPPSVSVSPGQTARITCTGDALPKQYAYWYQQKPGQAPVLIISKDNERASGIPERISGSRSGTTVTLTISGVQAEDEADYYCQSADSSASYSYVFGTGTKVTVL
B11: XGv345 (antibody, V domains shown)
VH: QVQLQESGPGLVKPSQTLSLTCTVSGGSIRSGSYYWSWIRQPAGKGLEWIGRVYTSGSTNYNPSLKTRVTISLETSKNHFSLKLSSVTAADTAVYYCARGEWEEDFALWGRGTLVTVSS
VL: DIQMTQSPSSLSASVGDRVTITCRASQSIASHLNWYQQKPGKAPKLLIYGASTLQSGVPSRFSGSGSGTAFTLTISSVQPEDFATYYCQQSYSAITFGQGTRLEIK
B12: XGv387 (antibody, V domains shown)
VH: EVQLVESGGGLIQPGGSLRLSCAASGVIVSSNYMSWVRQAPGKGLEWVSVMYSGGSTFYADSVKGRFTISRDNSKNTLYLQMNRLRAEDTAVYFCARGDGGSYLGGAFDIWGQGTMVTVSS
VL: DIQMTQSPSSLSASVGDRVTLTCRASQSISTYLNWYQQKPGKAPKLLIYAASSLQSGVPSRFSGSGSGTDFTLTINSLQPEDFATYYCQQSYSLPALTFGGGTKVEIK
B13: XGv402 (antibody, V domains shown)
VH: QVQLVESGGGVVQPGRSLRLSCAASGFTFNNYAMHWVRQAPGKGLEWVAVISYDGSNEFYLDSVKGRFAISRDNSKNTLYLQTNSLRGEDTAVYYCARESRRGADYWGQGTLVTVSS
VL: DIQMTQSPSSLSASVGDRVTITCRASQIISNYLNWYQQKPGKAPKLLIYAASSLQSGVPSRFSGSGSGTDFTLTISSLQPEDSATYYCQQSFSPLWTFGPGTKVEIK
B14: XGv420 (antibody, V domains shown)
VH: QVQLQESGPGLVKPSGTLSLTCAVSGGSINSNNWWSWVRQPPGKGLEWIGEIYHNGNTNYNPSLKSRVTISVDTSKNQFSLRLSSVTAADTAVYYCARGDSLDWFDPWGQGTLVTVSS
VL: QSALTQPASVSGSPGQSITISCTGTSSDVGSYNYVSWYQQLPGKAPKLMIYDVSNRPSGVSNRFSGSKSGNTASLTISGLQAEDEADYYCSSYTSSSTLVFGTGTKVTVL

target: T1, SARS-CoV-2 wild-type spike receptor-binding domain (SARS-CoV-2, WT (MN908947), UniProt P0DTC2); experiment: BLI; details: both partners purified

Row | Binder | Kd [nM]
1 | B1 | 0.59
2 | B2 | 0.0814
3 | B3 | 0.515
4 | B4 | 0.344

target: SARS-CoV-2 wild-type spike (S) protein (SARS-CoV-2, WT (MN908947), UniProt P0DTC2); experiment: not given; details: not given

Row | Binder | binding result
5 | B5 | binds
6 | B6 | binds
7 | B7 | binds
8 | B8 | binds
9 | B9 | binds
10 | B10 | binds
11 | B11 | binds
12 | B12 | binds
13 | B13 | binds
14 | B14 | binds

target: T1, SARS-CoV-2 wild-type spike …; experiment: not given; details: not given

Row | Binder | binding result
15 | B5 | binds
16 | B6 | binds
17 | B7 | binds
18 | B8 | binds
19 | B9 | binds
20 | B10 | binds
21 | B11 | binds
22 | B12 | binds
23 | B13 | binds
24 | B14 | binds

target: SARS-CoV-2 wild-type spike N-terminal domain (SARS-CoV-2, WT (MN908947), UniProt P0DTC2); experiment: ELISA; details: both partners purified

Row | Binder | binding result
25 | B2 | no binding
26 | B3 | no binding
27 | B4 | no binding
